Test results as given in IntAct's records for PubMed 21858148.

Tests used:
[1] = molecular target: apc_human APC (UniProt P25054)
[2] = molecular target: apc_human APC (UniProt P25054); remark: listed apart in the source

Disks large homolog 1 (Homo sapiens), sequence (Q12959 whole entry, looked up, stated change not applied): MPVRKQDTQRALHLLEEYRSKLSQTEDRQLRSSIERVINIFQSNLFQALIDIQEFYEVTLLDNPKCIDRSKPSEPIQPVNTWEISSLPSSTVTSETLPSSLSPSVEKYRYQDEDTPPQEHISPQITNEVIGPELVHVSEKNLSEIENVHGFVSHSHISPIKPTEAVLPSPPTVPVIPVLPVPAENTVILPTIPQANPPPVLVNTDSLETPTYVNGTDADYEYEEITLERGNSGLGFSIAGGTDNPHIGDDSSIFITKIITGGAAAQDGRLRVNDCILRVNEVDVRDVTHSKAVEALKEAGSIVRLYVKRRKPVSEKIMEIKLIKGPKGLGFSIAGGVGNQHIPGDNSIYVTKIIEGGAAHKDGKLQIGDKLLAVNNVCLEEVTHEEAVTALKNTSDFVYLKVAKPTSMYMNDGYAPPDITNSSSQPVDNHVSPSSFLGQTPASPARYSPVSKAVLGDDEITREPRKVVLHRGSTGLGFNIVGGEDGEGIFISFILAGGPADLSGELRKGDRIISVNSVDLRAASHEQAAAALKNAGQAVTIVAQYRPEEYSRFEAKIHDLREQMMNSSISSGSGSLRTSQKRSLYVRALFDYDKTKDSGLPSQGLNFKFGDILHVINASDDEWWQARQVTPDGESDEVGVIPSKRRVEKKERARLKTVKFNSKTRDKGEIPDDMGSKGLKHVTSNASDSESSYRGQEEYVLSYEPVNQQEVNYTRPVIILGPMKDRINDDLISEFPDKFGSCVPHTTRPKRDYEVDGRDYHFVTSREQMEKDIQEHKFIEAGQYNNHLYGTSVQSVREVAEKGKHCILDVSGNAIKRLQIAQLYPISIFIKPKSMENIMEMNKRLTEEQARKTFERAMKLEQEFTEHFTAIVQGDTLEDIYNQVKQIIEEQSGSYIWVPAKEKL
apc_human APC, sequence (P25054 whole entry): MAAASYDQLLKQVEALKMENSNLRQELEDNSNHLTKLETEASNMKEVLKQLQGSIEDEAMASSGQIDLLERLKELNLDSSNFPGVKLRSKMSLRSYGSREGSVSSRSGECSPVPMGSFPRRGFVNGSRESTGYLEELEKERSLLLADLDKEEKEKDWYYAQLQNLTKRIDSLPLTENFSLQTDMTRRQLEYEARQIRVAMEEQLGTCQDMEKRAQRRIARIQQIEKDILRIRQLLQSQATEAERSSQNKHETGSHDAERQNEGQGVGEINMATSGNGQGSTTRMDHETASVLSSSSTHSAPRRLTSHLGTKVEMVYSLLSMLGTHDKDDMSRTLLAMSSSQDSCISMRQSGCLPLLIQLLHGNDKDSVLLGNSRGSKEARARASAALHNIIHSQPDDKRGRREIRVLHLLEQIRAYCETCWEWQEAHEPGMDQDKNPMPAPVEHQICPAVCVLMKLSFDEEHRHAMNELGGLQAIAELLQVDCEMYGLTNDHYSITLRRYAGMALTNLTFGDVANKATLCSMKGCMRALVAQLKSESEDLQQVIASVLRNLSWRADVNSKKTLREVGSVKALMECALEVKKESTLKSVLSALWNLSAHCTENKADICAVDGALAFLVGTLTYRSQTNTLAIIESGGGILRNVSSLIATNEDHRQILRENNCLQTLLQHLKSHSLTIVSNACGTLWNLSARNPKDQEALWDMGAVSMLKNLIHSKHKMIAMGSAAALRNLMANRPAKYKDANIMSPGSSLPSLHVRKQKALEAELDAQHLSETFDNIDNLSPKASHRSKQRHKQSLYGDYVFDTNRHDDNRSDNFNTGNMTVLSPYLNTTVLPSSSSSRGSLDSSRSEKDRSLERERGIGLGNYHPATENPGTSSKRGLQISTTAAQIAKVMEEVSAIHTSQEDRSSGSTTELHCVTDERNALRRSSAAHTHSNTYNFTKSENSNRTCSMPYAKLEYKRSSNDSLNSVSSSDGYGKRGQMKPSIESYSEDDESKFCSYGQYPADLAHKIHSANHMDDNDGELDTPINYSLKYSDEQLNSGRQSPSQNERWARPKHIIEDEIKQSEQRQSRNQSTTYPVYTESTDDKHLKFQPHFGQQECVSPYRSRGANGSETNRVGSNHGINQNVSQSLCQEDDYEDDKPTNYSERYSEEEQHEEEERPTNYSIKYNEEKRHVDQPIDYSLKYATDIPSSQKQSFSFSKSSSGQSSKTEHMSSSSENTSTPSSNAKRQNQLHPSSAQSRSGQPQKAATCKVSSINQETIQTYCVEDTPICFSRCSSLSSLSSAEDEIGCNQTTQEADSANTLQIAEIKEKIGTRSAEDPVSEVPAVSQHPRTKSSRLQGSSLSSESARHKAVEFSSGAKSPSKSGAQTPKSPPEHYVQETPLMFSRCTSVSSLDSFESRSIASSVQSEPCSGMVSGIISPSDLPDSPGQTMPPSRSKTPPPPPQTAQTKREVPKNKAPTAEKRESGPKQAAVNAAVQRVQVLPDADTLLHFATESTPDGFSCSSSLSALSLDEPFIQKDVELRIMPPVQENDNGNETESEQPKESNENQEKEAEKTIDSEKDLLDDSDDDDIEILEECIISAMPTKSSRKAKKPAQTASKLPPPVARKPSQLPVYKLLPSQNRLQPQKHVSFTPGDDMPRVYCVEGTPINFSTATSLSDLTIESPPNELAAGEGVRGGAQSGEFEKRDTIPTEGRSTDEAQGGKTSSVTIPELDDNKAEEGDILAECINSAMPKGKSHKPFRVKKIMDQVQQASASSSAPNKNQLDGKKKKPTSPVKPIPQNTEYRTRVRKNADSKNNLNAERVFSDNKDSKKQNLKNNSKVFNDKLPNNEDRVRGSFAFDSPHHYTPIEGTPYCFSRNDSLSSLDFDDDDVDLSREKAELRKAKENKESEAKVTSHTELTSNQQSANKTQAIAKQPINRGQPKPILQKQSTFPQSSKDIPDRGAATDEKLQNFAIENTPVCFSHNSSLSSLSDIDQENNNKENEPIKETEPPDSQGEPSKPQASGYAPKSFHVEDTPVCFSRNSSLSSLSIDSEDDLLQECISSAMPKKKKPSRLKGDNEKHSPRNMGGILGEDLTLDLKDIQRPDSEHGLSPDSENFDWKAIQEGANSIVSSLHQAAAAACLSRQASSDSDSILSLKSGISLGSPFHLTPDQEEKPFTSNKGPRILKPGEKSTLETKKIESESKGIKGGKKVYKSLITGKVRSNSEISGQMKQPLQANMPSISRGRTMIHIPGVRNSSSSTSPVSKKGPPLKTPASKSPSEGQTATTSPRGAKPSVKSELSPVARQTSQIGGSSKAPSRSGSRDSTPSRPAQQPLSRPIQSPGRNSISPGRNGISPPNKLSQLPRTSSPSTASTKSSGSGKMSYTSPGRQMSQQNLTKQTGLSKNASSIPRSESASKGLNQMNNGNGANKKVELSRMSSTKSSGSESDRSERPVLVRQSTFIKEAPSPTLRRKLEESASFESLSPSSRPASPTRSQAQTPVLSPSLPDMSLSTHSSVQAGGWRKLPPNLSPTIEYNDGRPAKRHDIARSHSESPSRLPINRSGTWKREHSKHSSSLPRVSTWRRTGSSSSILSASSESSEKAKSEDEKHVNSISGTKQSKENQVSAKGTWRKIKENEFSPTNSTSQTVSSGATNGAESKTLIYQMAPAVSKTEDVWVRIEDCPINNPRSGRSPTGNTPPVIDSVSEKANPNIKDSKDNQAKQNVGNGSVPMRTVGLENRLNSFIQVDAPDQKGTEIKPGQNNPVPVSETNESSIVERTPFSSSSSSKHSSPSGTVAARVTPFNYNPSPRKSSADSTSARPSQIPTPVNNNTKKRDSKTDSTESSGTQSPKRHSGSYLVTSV

Disks large homolog 1 (Homo sapiens) (from UniProt Q12959) Q340P
effect of a mutation on the interaction [1]: decreasing interaction strength | effect of a mutation on the interaction [2]: disrupting interaction strength
